We go through seven molecules from US20030007968A1, “Methods of inducing organ transplant tolerance and correcting hemoglobinopathies” (priority 2001, published 2003).

For data set [1] the following is noted: with marrow rescue; cited from earlier work.
Data set [2] has as its system C57BL/6 (B6) recipient mice. Kind of data set: Congenic T cell-depleted bone marrow transplant after single busulfan dose, donor chimerism by flow cytometry. Format: in vivo, mouse. The following applies: busulfan 0, 10, 20, 30 mg/kg i.p. one day before 2×10^7 congenic T cell-depleted bone marrow cells. Here is the method: Bone marrow preparation and treatment regimens.
Similar results were achieved when the busulfan was administered six or twelve hours before the administration of the T cell-depleted bone marrow cells.
For orientation: Flow cytometry measures light scatter and fluorescence of single cells or particles in a stream.

Data set [3] has as its target T1, CD80Ig (Homo sapiens, UniProt P33681).
T1 construct: Ig (immunoglobulin fusion partner)
The data set is described as follows: BIAcore surface plasmon resonance equilibrium and kinetic binding to immobilized CD80Ig. The following applies: for koff / kon: immobilized CD80Ig, means±standard deviation from three experiments. The text has this: (§1) To synthesize and screen soluble CTLA4 mutant molecules with altered affinities for a B7 molecule (e.g. CD80, CD86), a two-step strategy was adopted. The experiments entailed first generating a library of mutations at a specific codon of an extracellular portion of CTLA4 and then screening these by BIAcore analysis to identify mutants with altered reactivity to B7. The Biacore assay system (Pharmacia, Piscataway, N.J.) uses a surface plasmon resonance detector system that essentially involves covalent binding of either CD80Ig or CD86Ig to a dextran-coated sensor chip which is located in a detector. The test molecule can then be injected into the chamber containing the sensor chip and the amount of complementary protein that binds can be assessed based on the change in molecular mass which is physically associated with the dextran-coated side of the sensor chip; the change in molecular mass can be measured by the detector system.
(§2) COS cells were transfected with individual miniprep purified plasmid DNA and propagated for several days. Three day conditioned culture media was applied to BIAcore biosensor chips (Pharmacia Biotech AB, Uppsala, Sweden) coated with soluble CD80Ig or CD86Ig. The specific binding and dissociation of mutant proteins was measured by surface plasmon resonance (O'Shannessy, D. J., et al., 1997 Anal. Biochem. 212:457-468). All experiments were run on BIAcore™ or BIAcore™ 2000 biosensors at 25° C. Ligands were immobilized on research grade NCM5 sensor chips (Pharmacia) using standard N-ethyl-N′-(dimethylaminopropyl) carbodiimidN-hydroxysuccinimide coupling (Johnsson, B., et al. (1991) Anal. Biochem. 198: 268-277; Khilko, S. N., et al.(1993) J. Biol. Chem 268:5425-15434).
(§3) BIAcore analysis conditions and equilibrium binding data analysis were performed as described in J. Greene et al. 1996 J. Biol. Chem. 271:26762-26771 and in U.S. patent application Ser. Nos. 09/579,927, and 60/214,065 which are herein incorporated by reference.
(§4) Senosorgram baselines were normalized to zero response units (RU) prior to analysis. Samples were run over mock-derivatized flow cells to determine background RU values due to bulk refractive index differences between solutions. Equilibrium dissociation constants (Kd) were calculated from plots of Req versus C, where Req is the steady-state response minus the response on a mock-derivatized chip, and C is the molar concentration of analyte. Binding curves were analyzed using commercial nonlinear curve-fitting software (Prism, GraphPAD Software).
(§5) Experimental data were first fit to a model for a single ligand binding to a single receptor (1-site model, i.e., a simple langmuir system, A+B AB), and equilibrium […] constants (Kd=[A]·[B]\[AB]) were calculated from the equation R=Rmax·C/(Kd+C). Subsequently, data were fit to the simplest two-site model of ligand binding (i.e., to a receptor having two non-interacting independent binding sites as described by the equation R=Rmax1·C\(Kd1+C)+Rmax2·C\(Kd2+C).
(§6) The goodness-of-fits of these two models were analyzed visually by comparison with experimental data and statistically by an F test of the sums-of-squares.
(§7) Association and disassociation analyses were performed using BIA evaluation 2.1 Software Pharmacia). Association rate constants kon were calculated in two ways, assuming both homogenous single-site interactions and parallel two-site interactions. For single-site interactions, kon values were calculated according to the equation Rt=Req(1−exp^−ks(t-t0), where Rt is a response at a given time, t; Req is the steady-state response; to is the time at the start of the injection; and ks=dR/dt=kon·Ckoff, where C is a concentration of analyte, calculated in terms of monomeric binding sites. For two-site interactions kon values were calculated according to the equation Rt=Req1(1−exp^−ks1(t-t0)+Req2(1−exp^ks2(t-t0). For each model, the values of kon were determined from the calculated slope (to about 70% maximal association) of plots of ks versus C. […]
On the technique in general: Surface plasmon resonance follows binding to a sensor surface in real time, without labels.

In data set [4] the target is T2, CD86Ig (Homo sapiens, UniProt P42081).
T2 construct: Ig (immunoglobulin fusion partner)
T2 sequence (P42081 with tags, fused parts or gaps limits assumed): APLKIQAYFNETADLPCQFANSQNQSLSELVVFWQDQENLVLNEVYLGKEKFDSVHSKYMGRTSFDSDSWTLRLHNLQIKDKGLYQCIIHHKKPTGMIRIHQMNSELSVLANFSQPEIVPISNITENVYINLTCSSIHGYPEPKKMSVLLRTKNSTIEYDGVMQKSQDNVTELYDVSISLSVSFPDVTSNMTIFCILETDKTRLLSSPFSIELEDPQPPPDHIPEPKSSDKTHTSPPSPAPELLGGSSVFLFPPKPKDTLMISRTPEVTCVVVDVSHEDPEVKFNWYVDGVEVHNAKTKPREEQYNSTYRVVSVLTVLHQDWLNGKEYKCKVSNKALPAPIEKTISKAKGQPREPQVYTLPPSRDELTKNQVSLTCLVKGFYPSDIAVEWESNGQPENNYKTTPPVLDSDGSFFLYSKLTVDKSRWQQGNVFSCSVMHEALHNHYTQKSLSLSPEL
Kind of data set: BIAcore surface plasmon resonance equilibrium and kinetic binding to immobilized CD86Ig. The following applies: for koff / kon: immobilized CD86Ig, means±standard deviation from three experiments; for slower “off” rate than wild type CTLA4Ig: screening of COS culture media samples over immobilized CD86Ig.
Description: as §1, §2, §3, §4, §5, §6, §7

For data set [5], the target named is T3, CD86Ig (UniProt P42081 24-247, limits assumed).
T3 construct: Immobilized on the BIAcore chip by amine coupling; also called soluble CD86Ig
T3 sequence (looked up): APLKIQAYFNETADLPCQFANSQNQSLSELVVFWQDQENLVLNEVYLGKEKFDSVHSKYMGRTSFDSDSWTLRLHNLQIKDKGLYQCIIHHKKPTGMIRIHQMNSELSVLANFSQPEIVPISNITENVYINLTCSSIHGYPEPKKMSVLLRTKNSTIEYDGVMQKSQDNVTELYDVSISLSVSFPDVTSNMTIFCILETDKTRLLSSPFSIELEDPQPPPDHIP
Kind of data set: SPR (BIAcore), CD86Ig immobilized, purified monomeric analyte.

For data set [6], the target named is T3, CD86Ig. The data set is described as follows: SPR, immobilized CD86Ig, monomer against dimer (L104EA29YIg).
The target of data set [7] is T4, CD80Ig (UniProt P33681 35-242, limits assumed).
T4 construct: Immobilized on the BIAcore chip by amine coupling; also called soluble CD80Ig
T4 sequence (looked up): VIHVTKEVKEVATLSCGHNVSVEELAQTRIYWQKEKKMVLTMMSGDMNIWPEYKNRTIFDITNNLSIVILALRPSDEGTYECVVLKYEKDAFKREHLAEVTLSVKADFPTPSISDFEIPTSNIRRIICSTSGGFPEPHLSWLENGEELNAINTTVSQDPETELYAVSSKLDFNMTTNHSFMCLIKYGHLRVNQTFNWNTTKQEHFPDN
The data set is described as follows: SPR, immobilized CD80Ig.

The target in data set [8] is T3, CD86Ig. Kind of data set: SPR, immobilized CD86Ig.
Data set [9] has as its target T4, CD80Ig. The data set is described as follows: SPR (BIAcore), CD80Ig immobilized, purified monomeric analyte.
Data set [10] concerns the target T4, CD80Ig. The data set is described as follows: SPR (BIAcore), equilibrium, CD80Ig immobilized, purified monomeric analyte.
The target of data set [11] is T3, CD86Ig. Kind of data set: SPR (BIAcore), equilibrium, CD86Ig immobilized, purified monomeric analyte.

T1 sequence (P33681 with tags, fused parts or gaps limits assumed): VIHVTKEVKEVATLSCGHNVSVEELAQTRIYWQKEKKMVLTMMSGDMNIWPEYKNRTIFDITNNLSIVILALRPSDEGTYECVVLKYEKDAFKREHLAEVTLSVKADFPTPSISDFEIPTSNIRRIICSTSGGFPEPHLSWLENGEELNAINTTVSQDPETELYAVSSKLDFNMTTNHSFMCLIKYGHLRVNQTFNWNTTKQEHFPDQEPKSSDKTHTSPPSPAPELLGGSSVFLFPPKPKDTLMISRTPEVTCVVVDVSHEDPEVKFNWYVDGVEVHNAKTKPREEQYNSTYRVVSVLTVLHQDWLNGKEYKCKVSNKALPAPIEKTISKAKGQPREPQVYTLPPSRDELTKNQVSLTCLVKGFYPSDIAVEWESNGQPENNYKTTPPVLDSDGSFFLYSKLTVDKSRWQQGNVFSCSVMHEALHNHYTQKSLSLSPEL

One may read the LD50 as the dose at which mortality reaches 50%. Consider `CS(=O)(=O)OCCCCOS(C)(=O)=O` [busulfan], for which the LD50 in [1] is reported as 136 mg/kg. For the same molecule, the “levels of donor hematopoietic chimerism versus dose” value in data set [2] was “directly proportional to the administered busulfan dose”.

Take “CTLA4XC120S: single chain (monomeric) CTLA4 extracellular domain with cysteine 120 to serine mutation [reference compound]”: in the data set with CD80Ig [3], the koff is given as 230 ± 10 (× 10^−3) S^−1 and the kon is given as 12.0 ± 1.0 (× 10^5) M^−1 S^−1. In the data set with CD86Ig [4], the koff is given as 840 ± 55 (× 10^−3) S^−1 and the kon was 16.5 ± 0.5 (× 10^5) M^−1 S^−1.

With “L104EA29LIg: double-site CTLA4 mutant Ig fusion, L104E and alanine +29 to leucine”, in the data set with CD86Ig [4], the “slower “off” rate than wild type CTLA4Ig” value was “approximately 4 fold”.

Regarding “L104EA29TIg: double-site CTLA4 mutant Ig fusion, L104E and alanine +29 to threonine”, the “slower “off” rate than wild type CTLA4Ig” value with CD86Ig [4] is “approximately 4 fold”.

In the case of “L104EA29WIg: double-site CTLA4 mutant Ig fusion, L104E and alanine +29 to tryptophan”, in the data set with CD86Ig [4], the “slower “off” rate than wild type CTLA4Ig” value is “approximately 4 fold”.

B1: L104EA29YXC120S (receptor)
chain: MHVAQPAVVLASSRGIASFVCEYASPGKYTEVRVTVLRQADSQVTEVCAATYMMGNELTFLDDSICTGTSSGNQVNLTIQGLRAMDTGLYICKVELMYPPPYYEGIGNGTQIYVIDPEPSPDSD
notes: it was 'prepared in an identical manner' to CTLA4XC120S; also called monomeric L104EA29Y extracellular domain
In general, Kd refers to the constant that tells how readily two partners part at equilibrium. As to B1, the koff in the data set with CD86Ig [5] worked out at 0.3 s⁻¹; in the data set with CD80Ig [9], 0.071 s⁻¹. The kon in the data set with CD86Ig [5] was 1.14e+06 M⁻¹ s⁻¹; with CD80Ig [9], 830000 M⁻¹ s⁻¹. Moreover, in the data set with CD86Ig [6], the “fold lower binding affinity than the respective dimer” value was 35 to 80 fold. For the same molecule, the “fold higher affinity than CTLA4XC120S” value with CD80Ig [7] and with CD86Ig [8] was about 2 fold throughout. Further, the “fold slower rate of dissociation than CTLA4XC120S” value with CD80Ig [7] and in the data set with CD86Ig [8] was about 3 fold throughout. Besides, the Kd with CD80Ig [10] was 0.085 µM; with CD86Ig [11], 0.267 µM.

B2: L104EA29YXC120S: single chain (monomeric) L104EA29Y extracellular domain with cysteine 120 to serine mutation (protein)
chain: B1 chain
On to B2, for which, in the data set with CD80Ig [3], the koff is listed as 71 ± 5 (× 10^−3) S^−1 and the kon was 8.3 ± 0.26 (× 10^5) M^−1 S^−1. In the data set with CD80Ig [3] (monomeric proteins), the “higher affinity than CTLA4XC120S to CD80Ig” value is “approximately 2 fold” and the “slower rate of dissociation from CD80Ig than CTLA4XC120S” value is reported as “approximately 3 fold”. Also, in the data set with CD86Ig [4], the koff was 300 ± 10 (× 10^−3) S^−1 and the kon was 11.4 ± 1.6 (× 10^5) M^−1 S^−1. Besides, in the data set with CD86Ig [4] (monomeric proteins), the “higher affinity than CTLA4XC120S to CD86Ig” value is listed as “approximately 2 fold” and the “slower rate of dissociation from CD86Ig than CTLA4XC120S” value was “approximately 3 fold”.
